In patent publication US20170369589A1 (INBIOMOTION S L, published 2017):
No end group written: not given here.

Assays:
[1] = target: T1, c-MAF (Q1): fragment of c-MAF including Aa 19-208 (Homo sapiens (Human), UniProt O75444 19-208); assay: SPR, Biacore T200, 25 C; antibody captured on Protein A, c-MAF (Q1) as analyte at 6.5 nM; single concentration fit, 1:1 model
T1 construct: Recombinant antigen preparation used in SPR; also called c-MAF fragment
T1 sequence: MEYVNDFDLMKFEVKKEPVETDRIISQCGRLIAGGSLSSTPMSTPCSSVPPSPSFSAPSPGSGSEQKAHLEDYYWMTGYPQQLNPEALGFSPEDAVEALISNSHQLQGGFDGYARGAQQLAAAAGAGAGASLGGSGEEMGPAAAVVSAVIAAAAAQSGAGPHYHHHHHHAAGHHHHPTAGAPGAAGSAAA
Method: Test measurements were conducted to confirm protein A-binding of the antibody INB-1-11-8 and to select appropriate capture levels for the kinetic measurements of the analyte. A capture level of 240 RU was chosen for the measurement with c-MAF (Q1), resulting in an expected Rmax of ca 64 RU for two 19.6 kDa antigens binding per antibody molecule. To generate sufficiently high binding signals for the peptide, a higher capture level of […] was chosen, also resulting in an expected Rmax of ca 30 RU. Serial dilutions of the antigen were injected for 180 s, followed by a 600 s buffer injection for off-rate determination (see FIG. 6). For the c-MAF fragment the molar concentrations used for the serial dilutions were calculated based on the concentrations determined by CFCA. The kinetic measurements were performed twice to confirm the binding behavior.
Based on this preliminary data, an affinity in the nM-range has been roughly estimated for the interaction. The binding is characterized by a very fast association rate and a fast dissociation rate, i.e. the binding is not very tight.

Peptide 1 (epitope …) = target: T2, Peptide 1 (epitope 83-EQKAHLEDYYWMTGYPQQ-100 of c-MAF of human origin) conjugated to BSA (human, also: conjugated to BSA); assay: antigen-specific ELISA: epitope peptide conjugated to BSA on the plate, anti-rabbit secondary antibody conjugated to alkaline phosphatase
T2 construct: also called antigen
T2 peptide: EQKAHLEDYYWMTGYPQQ
Method: An Antigen-specific ELISA was used to test the antibody sensitivity for the antigen. To this end, the epitope, Peptide 1, described above, was conjugated to BSA. This was attached to a the plate surface where the ELISA is performed and washed. The INB-1-11-8 c-MAF specific antibody was then applied so that it could bind to the antigen. Following, the incubation time and wash with TBST, a secondary antibody specific for rabbit antibodies and conjugated to Alkaline Phosphatase was used to score binding of the primary antibody to the antigen. Several dilutions were used to test the titer of the antibody, which is an indication of the affinity of the antibody for its antigen (FIG. 3A).

Kd [1]: 1.1 nM
koff [1]: 0.0056 s⁻¹
kon [1]: 5.3e+06 M⁻¹ s⁻¹
binding result (Peptide 1 (epitope …)): binds
B1: INB-1-11-8 c-MAF specific monoclonal antibody (rabbit) (antibody, V domains shown)
VH: QSLEESGGRLVTPGTPLTLTCTASGFSLNNYPMTWVRQAPGKGLDYIGVINNSGETAYATWAKRRFTISRTSTTLYLKIASPTIEDTATYFCARGGPVSSDMWGPGTLVIVSS
VL: AQVLTQTASPVSAVVGGTVTINCQSSQSVYRGDWLAWYQQRPGQPPKLLIYGASTLASGVPSRFKGSGSGTHFTLTISDLDCDDAATYYCAGGFSGHIYDFGGGTEVVVKG
notes: Rabbit monoclonal antibody; also called Clone ID11-8; antibody INB-1-11-8
